How the values were obtained:
[1] = system: AxCT mask27 EpCAM H90 L001 version 1
[2] = system: AxCT mask27 EpCAM H90.2 L060 version 1
[3] = system: AxCT mask27 EpCAM H90.2 L064 version 1
[4] = system: AxCT mask27 EpCAM H90.2 L040 version 1
[5] = system: AxCT mask27 EGFR EH104 L059 version 1
[6] = system: AxCT mask27 EGFR EH104 L054 version 1
[7] = system: AxCT mask27 EGFR EH104 L065 version 1
[8] = system: AxCT mask27 EGFR EH104 L068 version 1
[9] = system: AxCT mask27 EpCAM H90.2 L076 version 1
[10] = system: AxCT mask27 EGFR EH104 L067 version 1
[11] = system: AxCT mask27 EGFR EH104 L069 version 1
[12] = system: AxCT mask27 EGFR EH104 L071 version 1
[13] = system: AxCT mask27 EpCAM H90.2 L059 version 1
[14] = system: AxCT mask27 EGFR EH104 L061 version 1
[15] = system: AxCT mask27 EpCAM H90.2 NCLV
[16] = system: AxCT mask27 EGFR EH104 L055 version 1
[17] = system: AxCT mask27 EGFR EH104 L072 version 1
[18] = system: AxCT mask27 EGFR EH104 L064 version 1
[19] = system: AxCT mask27 EGFR EH104 L043 version 1
[20] = system: AxCT mask27 EGFR EH104 L073 version 1
[21] = system: AxCT mask27 EGFR EH104 L001 version 1
[22] = system: AxCT mask27 EGFR EH104 L066 version 1
[23] = system: AxCT mask27 EGFR EH104 L040 version 1
[24] = system: AxCT mask27 EpCAM H90.2 L063 version 1
[25] = system: AxCT mask27 EpCAM H90.2 L073 version 1
[26] = system: AxCT mask27 EpCAM H90.2 L075 version 1
[27] = system: AxCT mask27 EGFR EH104 L070 version 1
[28] = system: AxCT mask27 EGFR EH104 L062 version 1
[29] = system: AxCT mask27 EGFR EH104 L058 version 1
[30] = system: AxCT mask27 EGFR EH104 L057 version 1
[31] = system: AxCT mask27 EGFR EH104 L060 version 1
[32] = system: AxCT mask27 EpCAM H90.2 L041 version 1
[33] = system: AxCT mask27 EpCAM H90.2 L061 version 1
[34] = system: AxCT mask27 EGFR EH104 L063 version 1
[35] = system: AxCT mask27 EpCAM H90.2 L043 version 1
[36] = system: AxCT mask27 EGFR EH104 L041 version 1
[37] = system: AxCT mask27 EGFR EH104 L056 version 1

Sequence of MMP-9 (chain, as listed by the source): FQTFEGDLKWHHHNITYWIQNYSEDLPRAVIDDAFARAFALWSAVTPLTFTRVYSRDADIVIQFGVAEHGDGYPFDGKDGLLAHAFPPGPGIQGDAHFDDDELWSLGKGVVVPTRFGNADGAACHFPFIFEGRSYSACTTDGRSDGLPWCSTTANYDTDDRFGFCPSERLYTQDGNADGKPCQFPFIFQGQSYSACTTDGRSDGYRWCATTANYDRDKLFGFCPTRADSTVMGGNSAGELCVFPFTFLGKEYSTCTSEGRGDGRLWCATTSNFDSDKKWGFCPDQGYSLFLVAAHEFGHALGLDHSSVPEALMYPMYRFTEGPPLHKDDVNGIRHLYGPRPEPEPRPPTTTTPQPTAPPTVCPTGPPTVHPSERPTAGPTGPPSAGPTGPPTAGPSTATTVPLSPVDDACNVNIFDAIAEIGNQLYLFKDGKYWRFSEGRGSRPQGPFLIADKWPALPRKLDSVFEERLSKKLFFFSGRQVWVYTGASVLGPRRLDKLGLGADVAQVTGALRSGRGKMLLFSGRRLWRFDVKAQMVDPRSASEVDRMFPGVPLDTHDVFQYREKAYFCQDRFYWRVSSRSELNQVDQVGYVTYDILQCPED
Sequence of MMP-8 (chain, as listed by the source): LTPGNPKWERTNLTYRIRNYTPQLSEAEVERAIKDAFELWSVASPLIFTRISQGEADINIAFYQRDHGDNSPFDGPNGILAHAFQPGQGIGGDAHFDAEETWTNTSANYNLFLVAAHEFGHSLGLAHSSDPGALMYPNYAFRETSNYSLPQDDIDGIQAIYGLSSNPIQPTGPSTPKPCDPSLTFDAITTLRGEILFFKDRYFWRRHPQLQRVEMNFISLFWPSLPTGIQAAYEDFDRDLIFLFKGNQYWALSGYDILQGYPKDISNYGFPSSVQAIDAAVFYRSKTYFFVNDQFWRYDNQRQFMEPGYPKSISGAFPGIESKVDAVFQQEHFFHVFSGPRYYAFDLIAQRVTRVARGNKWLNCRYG

Substance	Percent cleavage [1] [%]	Percent cleavage [2] [%]	Percent cleavage [3] [%]	Percent cleavage [4] [%]	Percent cleavage [5] [%]	Percent cleavage [6] [%]	Percent cleavage [7] [%]	Percent cleavage [8] [%]	Percent cleavage [9] [%]	Percent cleavage [10] [%]	Percent cleavage [11] [%]	Percent cleavage [12] [%]	Percent cleavage [13] [%]	Percent cleavage [14] [%]	Percent cleavage [15] [%]	Percent cleavage [16] [%]	Percent cleavage [17] [%]	Percent cleavage [18] [%]	Percent cleavage [19] [%]	Percent cleavage [20] [%]	other results
MMP-8	61	0	8	0	18	8	18	0	0	13	16	20	25	15	0	29	0	7	0	0	Percent cleavage [21]: 44%; Percent cleavage [22]: 0%; Percent cleavage [23]: 6%; Percent cleavage [24]: 0%; Percent cleavage [25]: 0%; Percent cleavage [26]: 0%; Percent cleavage [27]: 0%; Percent cleavage [28]: 6%; Percent cleavage [29]: 0%; Percent cleavage [30]: 11%; Percent cleavage [31]: 0%; Percent cleavage [32]: 0%; Percent cleavage [33]: 25%; Percent cleavage [34]: 0%; Percent cleavage [35]: 0%; Percent cleavage [36]: 0%; Percent cleavage [37]: 7%
MMP-9	80	0	0	60	32	9	70	19	17	50	29	46	19	54	0	75	51	13	20	11	Percent cleavage [21]: 74%; Percent cleavage [22]: 29%; Percent cleavage [23]: 63%; Percent cleavage [24]: 8%; Percent cleavage [25]: 0%; Percent cleavage [26]: 0%; Percent cleavage [27]: 0%; Percent cleavage [28]: 63%; Percent cleavage [29]: 27%; Percent cleavage [30]: 57%; Percent cleavage [31]: 7%; Percent cleavage [32]: 57%; Percent cleavage [33]: 36%; Percent cleavage [34]: 21%; Percent cleavage [35]: 7%; Percent cleavage [36]: 59%; Percent cleavage [37]: 52%
